Assay results reported in PMC8124314.
Like-named read-outs stand apart in the source and are kept apart here.

Experiments:
[1] = target: MBP-fused epithelial cadherin (MBP-eCAD); test: SPR
[2] = target: MBP-fused epithelial cadherin (MBP-eCAD); test: SPR; remark: listed apart in the source
[3] = target: E-cadherin (Homo sapiens) (UniProt P12830); details: cited from earlier work

Kd [1] [µM] | Kd [2] [µM] | koff [2] [s⁻¹] | kon [2] [M⁻¹ s⁻¹] | Substance | Kd [3] [µM]
197 | 0.197 | 0.000696 | 4650 | MBP-fused epithelial cadherin (MBP-eCAD) (domain or fragment) | 
 |  |  |  | E-cadherin (from UniProt P12830) | 100
